Measured values: patent CN115594758A (NANJING JINGZHUN BIOTECHNOLOGY CO LTD, dated 2023)

Biological target: SARS-CoV-2假病毒 (病毒包膜糖蛋白 on MLV pseudovirus) (SARS-CoV-2, UniProt P0DTC2 14-1273)
Assay: cell-based or functional assay

B1: 纳米抗体SA4 (VHH)
VHH: QVQLQESGGGLVQPGGSLRLSCAASGSFFEFGTVGWFRQAPGKQRELVSRITGNDHRYYADSVKGRFTISRDNDETTVYLQMDSLKPEDTAIYHCNILEGQRWSNYWGQGTQVTVSH
- 假病毒中和实验 IC50 (GFP by flow cytometry, VeroE6-hACE2 cells): 12.7 nM
